We go through one molecule from patent US5981483A, “Compositions comprising modulators of cytokines of the TGF-β superfamily” (Mount Sinai Hospital Corporation, priority 1997, dated 1999).

The assay concerns the target T1, BMP-2 (Homo sapiens, UniProt P12643).
T1 construct: Genetics Institute, Cambridge, Mass; (gift)
T1 sequence (P12643 283-396): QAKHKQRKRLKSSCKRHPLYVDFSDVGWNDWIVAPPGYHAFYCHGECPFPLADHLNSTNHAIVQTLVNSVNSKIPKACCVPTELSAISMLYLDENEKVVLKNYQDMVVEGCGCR
The experiment in a line: BIAcore surface plasmon resonance, binding to immobilized BMP-2. The conditions noted are these: Table 2 (calculations repeated); ligand BMP-2. Here is the method:
In this system, a purified protein serving as the ligand is covalently coupled to a carboxymethylated dextran surface, and binding molecules (i.e. the analyte) are passed in a fluid phase across the surface. Binding of the analyte to ligand causes a change in reflected light which is directly proportional to mass bound, and is measured in arbitrary response units (R.U.). Analyte-ligand binding is observed as both increasing response with time during the injection of analyte, and the difference in the position of the baseline before and after injection.
Schuster, R. V. Swanson, L. A. Alex, R. B. Bourret, M. I. Simon, Nature 365, 343 (1993). 1000 R.U. equals approximately 1 ng/mm^2. The running buffer was 20 mM Hepes (pH 7.2), 150 mM NaCl and the flow rate for all sensorgrams was 3 μl/min.
Regeneration of the surface to remove bound analyte was done by injection of 10 μl of 20 mM NaOH. To cyclize TRH1 peptides, the material was reduced with 5 mM DTT then brought to a final concentration of 60 μM in 25 mM ammonium acetate (pH 8.5). […]
Data was analyzed using the BIA-evaluation software (Pharmacia Biosensor). The association rate constant, kass, was calculated by first plotting the change in response with time versus response (i.e. dR/dT vs R). […] The affinity constants were calculated from KD =kdiss /kass. […]

B1: h-Fetuin: adult human fetuin/α2-HS glycoprotein (Calbiochem) (protein)
chain: APHGPGLIYRQPNCDDPETEEAALVAIDYINQNLPWGYKHTLNQIDEVKVWPQQPSGELFEIEIDTLETTCHVLDPTPVARCSVRQLKEHAVEGDCDFQLLKLDGKFSVVYAKCDSSPDSAEDVRKVCQDCPLLAPLNDTRVVHAAKAALAAFNAQNNGSNFQLEEISRAQLVPLPPSTYVEFTVSGTDCVAKEATEAAKCNLLAEKQYGFCKATLSEKLGGAEVAVTCMVFQTQPVSSQPQPEGANEAVPTPVVDPDAPPSPPLGAPGLPPAGSPPDSHVLLAAPPGHQLHRAHYDLRHTFMGVVSLGSPSGEVSHPRKTRTVVQPSVGAAAGPVVPPCPGRIRHFKV
As for B1, the kass was 22000 ± 5000 M⁻¹ s⁻¹.
